Source: patent publication CN113621063A (JIANGSU QUANXIN BIOMEDICAL CO LTD; JIANGSU SAIFUSHI …, dated 2021)

T1: 人IFNAR1 (on HEK Blue IFNα/β cells, Daudi cells, human whole blood cells) (human, UniProt P17181 28-557)
T1 sequence (looked up): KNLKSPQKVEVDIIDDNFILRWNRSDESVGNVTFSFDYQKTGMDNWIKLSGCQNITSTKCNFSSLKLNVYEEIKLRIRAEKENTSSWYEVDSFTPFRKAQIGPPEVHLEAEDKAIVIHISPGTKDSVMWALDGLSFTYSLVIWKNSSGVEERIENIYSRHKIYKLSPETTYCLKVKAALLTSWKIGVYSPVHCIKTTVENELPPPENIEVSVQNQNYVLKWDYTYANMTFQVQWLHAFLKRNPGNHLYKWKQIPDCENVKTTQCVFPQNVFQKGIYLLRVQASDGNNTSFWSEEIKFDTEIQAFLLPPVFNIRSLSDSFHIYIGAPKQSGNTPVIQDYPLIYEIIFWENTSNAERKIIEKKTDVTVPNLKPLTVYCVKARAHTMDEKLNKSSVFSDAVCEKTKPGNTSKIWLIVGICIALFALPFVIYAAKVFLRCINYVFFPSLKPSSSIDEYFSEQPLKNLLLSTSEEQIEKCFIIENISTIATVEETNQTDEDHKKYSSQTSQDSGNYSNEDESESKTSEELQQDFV

T2: 人干扰素α受体1(IFNAR1) (human, UniProt P17181 28-436)
T2 construct: Soluble antigen flowed over the captured antibody in the Biacore assay; also called 人IFNAR1; Human Interferon alpha/beta Receptor 1
T2 sequence: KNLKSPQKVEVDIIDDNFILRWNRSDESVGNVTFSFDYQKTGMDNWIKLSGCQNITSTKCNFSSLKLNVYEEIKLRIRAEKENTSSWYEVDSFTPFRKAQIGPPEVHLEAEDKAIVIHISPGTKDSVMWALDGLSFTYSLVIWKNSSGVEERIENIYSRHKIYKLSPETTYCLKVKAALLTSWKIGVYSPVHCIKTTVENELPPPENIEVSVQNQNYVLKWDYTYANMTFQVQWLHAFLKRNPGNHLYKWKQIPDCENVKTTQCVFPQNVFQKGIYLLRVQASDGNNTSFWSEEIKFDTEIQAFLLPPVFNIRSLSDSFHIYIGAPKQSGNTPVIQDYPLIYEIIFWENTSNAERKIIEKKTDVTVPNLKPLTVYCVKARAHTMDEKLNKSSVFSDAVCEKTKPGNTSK


Legend:
[1] = target: T1, 人IFNAR1 (on HEK Blue IFNα/β cells, …); assay: cell-based or functional assay
人干扰素α受体1(IFNAR1) = target: T2, 人干扰素α受体1(IFNAR1); assay: SPR, Biacore T200, antibody captured on Protein A chip, antigen in flow, 25℃, 1:1 model, mean of three runs

抑制干扰素诱导的Daudi细胞增殖活性的EC50 [1] [ng/mL] | 抑制干扰素诱导的HEK Blue IFNα/β细胞中1/2磷酸化活性的IC50 [1] [ng/mL] | 抑制干扰素诱导的全血释放CXCL10/IP10活性的IC50 [1] [ng/mL] | Kd (人干扰素α受体1(IFNAR1)) [nM] | koff (人干扰素α受体1(IFNAR1)) [s⁻¹] | kon (人干扰素α受体1(IFNAR1)) [M⁻¹ s⁻¹] | Binder
29.9 | 5.23 | 698 | 0.108 | 3.76e-05 | 347000 | QX006N(HZD1203-45-IgG4.1) (antibody, V domains shown, Humanized rabbit clone 1203#; The human IgG1 constant region was replaced by human IgG4 (plasmid pHZDCH-362VH-Hu6-IgG4.1) and the light chain plasmid is pHZDCK (kappa); also called 抗人干扰素α受体1单克隆抗体QX006N; 重组人源化抗IFNAR1单克隆抗体) VH: EVQLVESGGGLVQPGGSLRLSCAASGFSLSSYYMTWVRQAPGKGLEWVSVINVYGGTYYASWAKGRFTISRDNSKNTLYLQMNSLRAEDTAVYYCAREDVAVYMAIDLWGQGTLVTVSS VL: AIQMTQSPSSLSASVGDRVTITCQASQSISNQLSWYQQKPGKAPKLLIYDASSLASGVPSRFSGSRSGTKFTLTISSLQPEDFATYYCLGIYGDGADDGIAFGGGTKVEIK
31.7 | 4.43 | 562 | – | – | – | Anifrolumab (antibody, V domains shown) VH: EVQLVQSGAEVKKPGESLKISCKGSGYIFTNYWIAWVRQMPGKGLESMGIIYPGDSDIRYSPSFQGQVTISADKSITTAYLQWSSLKASDTAMYYCARHDIEGFDYWGRGTLVTVSS VL: EIVLTQSPGTLSLSPGERATLSCRASQSVSSSFFAWYQQKPGQAPRLLIYGASSRATGIPDRLSGSGSGTDFTLTITRLEPEDFAVYYCQQYDSSAITFGQGTRLEIKR
